For orientation: pEC50 means −log10 of the EC50, conventionally taken in molar units. The low end stands for a high EC50, the high end for a low EC50.

The values below come from paper doi:10.1101/2023.02.23.529489.

Common to all, as to experiment: flow cytometry on cells
The target of experiment [1] is CD45RO ECD-GFP (extracellular domain and transmembrane region of CD45RO, phosphatase domains replaced by GFP) (human).
Experiment [2] concerns the target full-length human CD45RABC (human) (UniProt P08575).
Experiment [3] deals with full-length human CD45RO (human) (UniProt P08575).
The target in experiment [4] is CD45RABC ECD-GFP (extracellular domain and transmembrane region of CD45RABC, phosphatase domains replaced by GFP) (human).

pEC50: −log10 of the molar value.

Regarding “sec49K-His (recombinant N-terminal ectodomain of HAdV-D64 E3/49K, residues 20-353, from insect cells) (domain or fragment)”, the negative logarithm of the EC50 (pEC50) is 9.27 in experiment [1], 8.90 in experiment [2], 8.87 in experiment [3] and 9.26 in experiment [4].
